Consider 3 molecules from article PMC11191771.

The target of series [1] is PRC2.2 six-subunit complex WT (EZH2, SUZ12, EED, RBAP48, AEBP2, JARID2 119-450) (human, UniProt Q15910-2;Q15022;O75530;Q09028;Q6ZN18;Q92833 …). Description: EMSA; 100 mM KCl; EMSA: 50 mM Tris-HCl pH 7.5 (25 C), 100 mM KCl, 2.5 mM MgCl2, 0.1 mM ZnCl2, 2 mM 2-mercaptoethanol?; FP: 50 mM Tris pH 7.5, 10 or 25 mM KCl, 2.5 mM MgCl2, 0.1 mM ZnCl2, 0.1 mg/mL BSA?, room temperature, 5 nM RNA or DNA. The conditions noted are these: protein: recombinant, tags: His-EZH2, Strep-GFP-AEBP2, Strep-GFP-JARID2, TEV protease treated, copies: 1;1;1;1;1;1, label: 5' 32P (EMSA). Background: A gel shift assay detects complexes by their altered migration in electrophoresis.

The target of series [2] is T1, PRC2.2 EZH2 R566Y K568Y Q575Y (3Y) (human, UniProt Q15910-2;Q15022;O75530;Q09028;Q6ZN18;Q92833 …, R566Y;K568Y;Q575Y). Description: EMSA; higher affinity than WT; EMSA: 50 mM Tris-HCl pH 7.5 (25 C), 100 mM KCl, 2.5 mM MgCl2, 0.1 mM ZnCl2, 2 mM 2-mercaptoethanol?; FP: 50 mM Tris pH 7.5, 10 or 25 mM KCl, 2.5 mM MgCl2, 0.1 mM ZnCl2, 0.1 mg/mL BSA?, room temperature, 5 nM RNA or DNA. The conditions noted are these: protein: recombinant; tags: as P1; copies: 1;1;1;1;1;1; label: 5' 32P (EMSA); single G-quadruplex.

In series [3] the target is PRC2.2 EZH2 R566A K568A Q575A (human, UniProt Q15910-2;Q15022;O75530;Q09028;Q6ZN18;Q92833 …, R566A;K568A;Q575A). Description: EMSA; binding not affected vs WT; EMSA: 50 mM Tris-HCl pH 7.5 (25 C), 100 mM KCl, 2.5 mM MgCl2, 0.1 mM ZnCl2, 2 mM 2-mercaptoethanol?; FP: 50 mM Tris pH 7.5, 10 or 25 mM KCl, 2.5 mM MgCl2, 0.1 mM ZnCl2, 0.1 mg/mL BSA?, room temperature, 5 nM RNA or DNA. The conditions noted are these: protein: recombinant; tags: as P1; copies: 1;1;1;1;1;1; label: 5' 32P (EMSA); single G-quadruplex.

Another series concerns the target PRC2.2 EZH2 del353-362 (human, UniProt Q15910-2;Q15022;O75530;Q09028;Q6ZN18;Q92833 …, internal_change). Description: EMSA; no obvious reduction vs WT; EMSA: 50 mM Tris-HCl pH 7.5 (25 C), 100 mM KCl, 2.5 mM MgCl2, 0.1 mM ZnCl2, 2 mM 2-mercaptoethanol?; FP: 50 mM Tris pH 7.5, 10 or 25 mM KCl, 2.5 mM MgCl2, 0.1 mM ZnCl2, 0.1 mg/mL BSA?, room temperature, 5 nM RNA or DNA. The conditions noted are these: protein: recombinant; tags: as P1; copies: 1;1;1;1;1;1; label: 5' 32P (EMSA); single G-quadruplex.

The target of series [4] is T1, PRC2.2 EZH2 R566Y K568Y Q575Y (3Y). Description: FP; higher affinity than WT; Kd only in figure; EMSA: 50 mM Tris-HCl pH 7.5 (25 C), 100 mM KCl, 2.5 mM MgCl2, 0.1 mM ZnCl2, 2 mM 2-mercaptoethanol?; FP: 50 mM Tris pH 7.5, 10 or 25 mM KCl, 2.5 mM MgCl2, 0.1 mM ZnCl2, 0.1 mg/mL BSA?, room temperature, 5 nM RNA or DNA. The conditions noted are these: protein: recombinant; tags: as P1; copies: 1;1;1;1;1;1; label: fluorescent label; single G-quadruplex.

B1: 2G4 RNA (structured_RNA)
RNA: CAAAAACAAAAACAAAAACAAAAACAAAAAGGGAAGGGAAGGGAAGGGAAACAACAACAACAACAGGGAAGGGAAGGGAAGGGAA
Take B1: in series [1] (two G-quadruplexes), the Kd (in general, a measure of binding affinity in units of concentration) came to 32 nM.

B2: 1G4 RNA, no biotin (structured_RNA)
RNA: CAAAAACAAAAACAAAAACAAAAACAAAAAGGGAAGGGAAGGGAAGGGAA
Take B2: the Kd in series [1] (single G-quadruplex) is 120 nM. Besides, the binding result (in series [2]; in series [3]; in the series with PRC2.2 EZH2 del353-362) was “binds” in each case.

B3: 1G4 RNA (FP) (structured_RNA)
RNA: B2 RNA
As for B3, in series [4], the binding result is given as “binds”.
